Source: PMC6582352

Target: CbAgo (Clostridium butyricum, UniProt P0DYD1 1-748)
Assay: single-molecule TIRM, immobilized CbAgo

B1: siDNA 12 nt (SM013) (ssDNA)
DNA: CCATCTGTCTTA
modifications: 5'-phosphate
**Q.** Does B1 bind?
**A.** binds
